From article PMC10257715, “Allosteric activation of cell wall synthesis during bacterial growth” (Nature Communications, 2023)

Target: the molecule itself
Assay: cryo-EM structure; purified RodA-PBP2 complex in 0.02% DDM, 350 mM NaCl, 20 mM HEPES pH 7.5; Titan Krios 300 kV; low-resolution maps

B1: Escherichia coli PBP2, wild type, of ^EcRodA-PBP2^WT (cryo-EM sample) (enzyme, UniProt P0AD65 1-633, looked up)
chain: MKLQNSFRDYTAESALFVRRALVAFLGILLLTGVLIANLYNLQIVRFTDYQTRSNENRIKLVPIAPSRGIIYDRNGIPLALNRTIYQIEMMPEKVDNVQQTLDALRSVVDLTDDDIAAFRKERARSHRFTSIPVKTNLTEVQVARFAVNQYRFPGVEVKGYKRRYYPYGSALTHVIGYVSKINDKDVERLNNDGKLANYAATHDIGKLGIERYYEDVLHGQTGYEEVEVNNRGRVIRQLKEVPPQAGHDIYLTLDLKLQQYIETLLAGSRAAVVVTDPRTGGVLALVSTPSYDPNLFVDGISSKDYSALLNDPNTPLVNRATQGVYPPASTVKPYVAVSALSAGVITRNTTLFDPGWWQLPGSEKRYRDWKKWGHGRLNVTRSLEESADTFFYQVAYDMGIDRLSEWMGKFGYGHYTGIDLAEERSGNMPTREWKQKRFKKPWYQGDTIPVGIGQGYWTATPIQMSKALMILINDGIVKVPHLLMSTAEDGKQVPWVQPHEPPVGDIHSGYWELAKDGMYGVANRPNGTAHKYFASAPYKIAAKSGTAQVFGLKANETYNAHKIAERLRDHKLMTAFAPYNNPQVAVAMILENGGAGPAVGTLMRQILDHIMLGDNNTDLPAENPAVAAAEDH
notes: Forms dimers of the RodA-PBP2 complex when overexpressed; also called ^EcPBP2; ^EcWT; source: overexpressed, purified
stoichiometry N: 2
